In patent US20250019439A1 (Adimab, published 2025):

Experiments:
ADI-74968 = biological target: T1, ADI-74968; test: SPR Carterra, yeast anti-ID
T1 construct: pH-dependent anti-CD3 antibody made in CHO cells
Method in brief: (§1)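 Kinetic constants come from a 1:1 binding-model fit of double-referenced, drift-corrected sensorgrams. Anti-CD3 antibodies (100 nM) were captured via immobilized anti-human Fc, and anti-idiotype binding was recorded at 25° C in HBSTE, with dissociation monitored for 300s.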

ADI-26912 = biological target: T2, ADI-26912; test: SPR Carterra, yeast anti-ID
T2 construct: anti-CD3 antibody made in CHO cells, captured by anti-human Fc
Method in brief: as §1

ADI-67445 = biological target: T3, ADI-67445; test: SPR Carterra, yeast anti-ID
T3 construct: anti-CD3 antibody made in CHO cells, captured by anti-human Fc
Method in brief: as §1

ADI-50024 = biological target: T4, ADI-50024; test: SPR Carterra, yeast anti-ID
T4 construct: anti-CD3 antibody made in CHO cells, captured by anti-human Fc
Method in brief: as §1

ADI-67450 = biological target: T5, ADI-67450; test: SPR Carterra, yeast anti-ID
T5 construct: anti-CD3 antibody made in CHO cells, captured by anti-human Fc
Method in brief: as §1

ADI-70330 = biological target: T6, ADI-70330; test: SPR Carterra, yeast anti-ID
T6 construct: anti-CD3 antibody made in CHO cells, captured by anti-human Fc
Method in brief: as §1

ADI-76358 = biological target: T7, ADI-76358; test: SPR Carterra, yeast anti-ID
T7 construct: anti-CD3 antibody made in CHO cells, captured by anti-human Fc
Method in brief: as §1

CTL-62228 = biological target: T8, CTL-62228; test: SPR Carterra, yeast anti-ID
T8 construct: also called glofitamab
Method in brief: as §1

ADI-48650 = biological target: T9, ADI-48650; test: SPR Carterra, yeast anti-ID
T9 construct: pH-dependent anti-CD3 antibody made in CHO cells
Method in brief: as §1

ADI-26921 IgG = biological target: T10, ADI-26921 IgG; test: SPR Carterra, yeast anti-ID
T10 construct: anti-CD3 IgG
Method in brief: as §1

ADI-48587 = biological target: T11, ADI-48587; test: SPR Carterra, yeast anti-ID
T11 construct: pH-dependent anti-CD3 antibody made in CHO cells
Method in brief: as §1

ADI-26915 = biological target: T12, ADI-26915; test: SPR Carterra, yeast anti-ID
T12 construct: anti-CD3 antibody made in CHO cells, captured by anti-human Fc
Method in brief: as §1

ADI-74967 = biological target: T13, ADI-74967; test: SPR Carterra, yeast anti-ID
T13 construct: pH-dependent anti-CD3 antibody made in CHO cells
Method in brief: as §1

ADI-76360 = biological target: T14, ADI-76360; test: SPR Carterra, yeast anti-ID
T14 construct: anti-CD3 antibody made in CHO cells, captured by anti-human Fc
Method in brief: as §1

ADI-67447 = biological target: T15, ADI-67447; test: SPR Carterra, yeast anti-ID
T15 construct: anti-CD3 antibody made in CHO cells, captured by anti-human Fc
Method in brief: as §1

ADI-74965 = biological target: T16, ADI-74965; test: SPR Carterra, yeast anti-ID
T16 construct: pH-dependent anti-CD3 antibody made in CHO cells
Method in brief: as §1

ADI-76361 = biological target: T17, ADI-76361; test: SPR Carterra, yeast anti-ID
T17 construct: anti-CD3 antibody made in CHO cells, captured by anti-human Fc
Method in brief: as §1

CTL-62223 = biological target: T18, CTL-62223; test: SPR Carterra, yeast anti-ID
T18 construct: also called mosunetuzumab
Method in brief: as §1

ADI-70326 = biological target: T19, ADI-70326; test: SPR Carterra, yeast anti-ID
T19 construct: anti-CD3 antibody made in CHO cells, captured by anti-human Fc
Method in brief: as §1

ADI-26909 = biological target: T20, ADI-26909; test: SPR Carterra, yeast anti-ID
T20 construct: anti-CD3 antibody made in CHO cells, captured by anti-human Fc
Method in brief: as §1

CTL-62240 = biological target: T21, CTL-62240; test: SPR Carterra, yeast anti-ID
T21 construct: also called ONO-4685
Method in brief: as §1

CTL-62227 = biological target: T22, CTL-62227; test: SPR Carterra, yeast anti-ID
T22 construct: also called odronextamab
Method in brief: as §1

ADI-76362 = biological target: T23, ADI-76362; test: SPR Carterra, yeast anti-ID
T23 construct: anti-CD3 antibody made in CHO cells, captured by anti-human Fc
Method in brief: as §1

ADI-70327 = biological target: T24, ADI-70327; test: SPR Carterra, yeast anti-ID
T24 construct: anti-CD3 antibody made in CHO cells, captured by anti-human Fc
Method in brief: as §1

ADI-48576 = biological target: T25, ADI-48576; test: SPR Carterra, yeast anti-ID
T25 construct: pH-dependent anti-CD3 antibody made in CHO cells
Method in brief: as §1

ADI-26943 = biological target: T26, ADI-26943; test: SPR Carterra avidity, yeast anti-ID
T26 construct: anti-CD3 antibody made in CHO cells, captured by anti-human Fc
Method in brief: as §1

ADI-26906 IgG = biological target: T27, ADI-26906 IgG; test: SPR Carterra avidity, yeast anti-ID
T27 construct: anti-CD3 IgG
Method in brief: as §1

ADI-76357 = biological target: T28, ADI-76357; test: SPR Carterra avidity, yeast anti-ID
T28 construct: anti-CD3 antibody made in CHO cells, captured by anti-human Fc
Method in brief: as §1

ADI-76359 = biological target: T29, ADI-76359; test: SPR Carterra avidity, yeast anti-ID
T29 construct: anti-CD3 antibody made in CHO cells, captured by anti-human Fc
Method in brief: as §1

ADI-26916 IgG = biological target: T30, ADI-26916 IgG; test: SPR Carterra avidity, yeast anti-ID
T30 construct: anti-CD3 IgG
Method in brief: as §1

ADI-48592 = biological target: T31, ADI-48592; test: SPR Carterra avidity, yeast anti-ID
T31 construct: pH-dependent anti-CD3 antibody made in CHO cells
Method in brief: as §1

ADI-26913 IgG = biological target: T32, ADI-26913 IgG; test: SPR Carterra avidity, yeast anti-ID
T32 construct: anti-CD3 IgG
Method in brief: as §1

ADI-74966 = biological target: T33, ADI-74966; test: SPR Carterra avidity, yeast anti-ID
T33 construct: pH-dependent anti-CD3 antibody made in CHO cells
Method in brief: as §1

ADI-26924 = biological target: T34, ADI-26924; test: SPR Carterra avidity, yeast anti-ID, *koff limit
T34 construct: anti-CD3 antibody made in CHO cells, captured by anti-human Fc
Method in brief: as §1

ADI-26920 IgG = biological target: T35, ADI-26920 IgG; test: SPR Carterra avidity, yeast anti-ID, *koff limit
T35 construct: anti-CD3 IgG
Method in brief: as §1

ADI-26919 = biological target: T36, ADI-26919; test: SPR Carterra avidity, yeast anti-ID, *koff limit
T36 construct: anti-CD3 antibody made in CHO cells, captured by anti-human Fc
Method in brief: as §1

ADI-22523 Fab = biological target: T37, ADI-22523 Fab; test: BLI; tip anti-ID IgG, solution ADI-22523 Fab
T37 construct: anti-CD3 Fab by papain digestion of the IgG
Method in brief: (§2)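 Sensors carrying captured anti-ID IgG were equilibrated 30 min in assay buffer before a 60 s baseline. Equilibrium KD was taken as koff/kon from a 1:1 model.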

ADI-22523 IgG = biological target: T38, ADI-22523 IgG; test: BLI; tip anti-ID IgG, solution ADI-22523 IgG
T38 construct: anti-CD3 IgG
Method in brief: as §2

T21 sequence (VH, as listed by the source, chain 1 of 2): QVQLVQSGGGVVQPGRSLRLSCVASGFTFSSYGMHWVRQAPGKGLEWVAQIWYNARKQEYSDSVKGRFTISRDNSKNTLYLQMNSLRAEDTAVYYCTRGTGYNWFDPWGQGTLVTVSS
T21 sequence (VL, as listed by the source, chain 2 of 2): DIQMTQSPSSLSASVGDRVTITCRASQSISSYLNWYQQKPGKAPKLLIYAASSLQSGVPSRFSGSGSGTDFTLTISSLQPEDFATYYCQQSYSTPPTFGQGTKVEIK
T20 sequence (VH, as listed by the source limits assumed, chain 1 of 2): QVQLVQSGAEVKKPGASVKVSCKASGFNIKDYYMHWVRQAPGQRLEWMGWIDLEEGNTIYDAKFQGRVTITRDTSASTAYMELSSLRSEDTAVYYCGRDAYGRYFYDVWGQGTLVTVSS
T20 sequence (VL, as listed by the source limits assumed, chain 2 of 2): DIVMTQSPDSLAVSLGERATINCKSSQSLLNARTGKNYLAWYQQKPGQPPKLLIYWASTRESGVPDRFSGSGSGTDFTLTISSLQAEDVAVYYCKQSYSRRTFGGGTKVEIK
T6 sequence (VH, as listed by the source limits assumed, chain 1 of 2): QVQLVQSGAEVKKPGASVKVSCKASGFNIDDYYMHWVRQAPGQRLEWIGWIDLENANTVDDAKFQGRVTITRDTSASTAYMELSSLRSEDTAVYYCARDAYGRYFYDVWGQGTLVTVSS
T6 sequence (VL, as listed by the source limits assumed, chain 2 of 2): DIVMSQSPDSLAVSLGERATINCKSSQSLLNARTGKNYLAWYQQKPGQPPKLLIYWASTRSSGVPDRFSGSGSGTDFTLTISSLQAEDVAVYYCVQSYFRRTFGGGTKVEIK
T11 sequence (VH, as listed by the source, chain 1 of 2): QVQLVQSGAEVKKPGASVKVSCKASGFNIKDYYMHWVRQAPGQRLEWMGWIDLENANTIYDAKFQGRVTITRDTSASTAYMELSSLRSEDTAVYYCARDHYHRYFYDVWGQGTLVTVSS
T11 sequence (VL, as listed by the source, chain 2 of 2): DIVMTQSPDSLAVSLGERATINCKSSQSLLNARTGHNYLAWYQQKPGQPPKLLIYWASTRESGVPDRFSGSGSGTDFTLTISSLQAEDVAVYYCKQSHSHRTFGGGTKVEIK
T33 sequence (VL, as listed by the source, chain 2 of 2): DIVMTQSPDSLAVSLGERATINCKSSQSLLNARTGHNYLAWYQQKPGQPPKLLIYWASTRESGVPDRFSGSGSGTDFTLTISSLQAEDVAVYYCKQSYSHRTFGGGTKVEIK
T13 sequence (VL, as listed by the source, chain 2 of 2): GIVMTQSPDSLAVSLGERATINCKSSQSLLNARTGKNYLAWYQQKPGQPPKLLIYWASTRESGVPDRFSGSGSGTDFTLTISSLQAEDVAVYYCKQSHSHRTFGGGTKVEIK
T14 sequence (VH, as listed by the source, chain 1 of 2): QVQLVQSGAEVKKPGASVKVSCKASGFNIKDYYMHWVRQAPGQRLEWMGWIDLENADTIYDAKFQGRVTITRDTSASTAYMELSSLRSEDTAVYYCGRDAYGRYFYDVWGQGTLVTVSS
T14 sequence (VL, as listed by the source, chain 2 of 2): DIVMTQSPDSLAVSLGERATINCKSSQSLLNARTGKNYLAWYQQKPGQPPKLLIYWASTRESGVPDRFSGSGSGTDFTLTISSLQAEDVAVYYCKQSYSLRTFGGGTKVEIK
T4 sequence (VH, as listed by the source limits assumed, chain 1 of 2): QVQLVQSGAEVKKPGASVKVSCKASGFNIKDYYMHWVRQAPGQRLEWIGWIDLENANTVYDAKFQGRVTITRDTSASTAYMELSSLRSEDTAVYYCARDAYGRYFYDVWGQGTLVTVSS
T38 sequence (VH, as listed by the source limits assumed, chain 1 of 2): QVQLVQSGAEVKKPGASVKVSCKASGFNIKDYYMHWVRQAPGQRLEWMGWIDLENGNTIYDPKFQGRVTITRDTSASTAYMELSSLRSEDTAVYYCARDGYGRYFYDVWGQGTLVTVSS
T38 sequence (VL, as listed by the source limits assumed, chain 2 of 2): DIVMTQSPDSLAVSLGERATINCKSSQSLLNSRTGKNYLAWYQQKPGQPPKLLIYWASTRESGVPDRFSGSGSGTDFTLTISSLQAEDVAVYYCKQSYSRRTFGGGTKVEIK
T27 sequence (VH, as listed by the source limits assumed, chain 1 of 2): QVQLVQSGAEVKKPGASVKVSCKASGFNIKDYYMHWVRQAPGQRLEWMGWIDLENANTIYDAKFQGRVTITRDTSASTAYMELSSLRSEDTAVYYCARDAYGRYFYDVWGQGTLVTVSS
T34 sequence (VH, as listed by the source, chain 1 of 2): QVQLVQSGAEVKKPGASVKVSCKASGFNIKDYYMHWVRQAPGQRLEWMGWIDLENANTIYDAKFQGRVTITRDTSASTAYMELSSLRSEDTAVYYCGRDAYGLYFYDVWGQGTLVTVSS
T7 sequence (VH, as listed by the source, chain 1 of 2): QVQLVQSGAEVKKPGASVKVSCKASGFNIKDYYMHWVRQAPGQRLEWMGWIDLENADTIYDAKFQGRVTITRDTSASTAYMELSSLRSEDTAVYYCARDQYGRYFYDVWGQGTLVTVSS
T19 sequence (VH, as listed by the source limits assumed, chain 1 of 2): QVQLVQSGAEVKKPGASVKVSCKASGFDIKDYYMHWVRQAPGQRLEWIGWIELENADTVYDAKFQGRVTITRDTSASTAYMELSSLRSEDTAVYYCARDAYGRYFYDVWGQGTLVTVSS
T32 sequence (VH, as listed by the source limits assumed, chain 1 of 2): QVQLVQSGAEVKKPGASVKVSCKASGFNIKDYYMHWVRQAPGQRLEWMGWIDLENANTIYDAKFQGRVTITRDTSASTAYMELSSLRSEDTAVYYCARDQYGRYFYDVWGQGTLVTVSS
T22 sequence (VH, as listed by the source, chain 1 of 2): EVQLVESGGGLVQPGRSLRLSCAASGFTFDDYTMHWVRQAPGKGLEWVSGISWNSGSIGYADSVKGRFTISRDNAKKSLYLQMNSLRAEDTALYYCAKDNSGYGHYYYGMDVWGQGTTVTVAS
T22 sequence (VL, as listed by the source, chain 2 of 2): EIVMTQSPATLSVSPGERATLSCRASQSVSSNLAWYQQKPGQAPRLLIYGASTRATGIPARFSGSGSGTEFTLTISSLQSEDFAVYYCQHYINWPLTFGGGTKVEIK
T28 sequence (VH, as listed by the source, chain 1 of 2): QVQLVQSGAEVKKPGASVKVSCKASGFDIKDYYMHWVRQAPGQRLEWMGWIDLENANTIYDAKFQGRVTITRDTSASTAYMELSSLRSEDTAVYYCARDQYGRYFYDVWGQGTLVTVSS

B1: ADI-30254 (antibody, V domains shown)
VH: EVQLLESGGGLVQPGGSLRLSCAASGFTFSSYAMSWVRQAPGKGLEWVSTISGSGGSTYYADSVKGRFTISRDNSKNTLYLQMNSLRAEDTAVYYCARLGGRRGSGSSYYYYYGMDVWGQGTTVTVSS
VL: not shown
notes: anti-ID IgG
ADI-74968
  binding result: no binding (tested: up to 200 nM)
ADI-26912
  binding result: no binding (tested: up to 200 nM)
ADI-67445
  binding result: no binding (tested: up to 200 nM)
ADI-50024
  binding result: no binding (tested: up to 200 nM)
ADI-67450
  binding result: no binding (tested: up to 200 nM)
ADI-70330
  binding result: no binding (tested: up to 200 nM)
ADI-76358
  binding result: no binding (tested: up to 200 nM)
CTL-62228
  binding result: no binding (tested: up to 200 nM)
ADI-48650
  binding result: no binding (tested: up to 200 nM)
ADI-26921 IgG
  binding result: no binding (tested: up to 200 nM)
ADI-48587
  binding result: no binding (tested: up to 200 nM)
ADI-26915
  binding result: no binding (tested: up to 200 nM)
ADI-74967
  binding result: no binding (tested: up to 200 nM)
ADI-76360
  binding result: no binding (tested: up to 200 nM)
ADI-67447
  binding result: no binding (tested: up to 200 nM)
ADI-74965
  binding result: no binding (tested: up to 200 nM)
ADI-76361
  binding result: no binding (tested: up to 200 nM)
CTL-62223
  binding result: no binding (tested: up to 200 nM)
ADI-70326
  binding result: no binding (tested: up to 200 nM)
ADI-26909
  binding result: no binding (tested: up to 200 nM)
CTL-62240
  binding result: no binding (tested: up to 200 nM)
CTL-62227
  binding result: no binding (tested: up to 200 nM)
ADI-76362
  binding result: no binding (tested: up to 200 nM)
ADI-70327
  binding result: no binding (tested: up to 200 nM)
ADI-48576
  binding result: no binding (tested: up to 200 nM)
ADI-26943
  Kd: 27 nM
ADI-26906 IgG
  binding result: binds
ADI-76357
  binding result: binds
ADI-76359
  Kd: 27 nM
ADI-26916 IgG
  Kd: 56 nM
ADI-48592
  binding result: binds
ADI-26913 IgG
  binding result: binds
ADI-74966
  binding result: binds
ADI-26924
  Kd: 21 nM
ADI-26920 IgG
  Kd: 21 nM
ADI-26919
  Kd: 33 nM
ADI-22523 Fab
  Kd: 50.3 nM
ADI-22523 IgG
  Kd: 3.34 nM
